Experimental data as given in paper PMC7922139, “Characterization of a Yellow Laccase from Botrytis cinerea 241” (Journal of Fungi, 2021).

Assays:
[1] = tested on: O=c1c(O)c(-c2ccc(O)c(O)c2)oc2cc(O)cc(O)c12; assay: purified protein; conditions: 50 mM sodium acetate pH 5.5, 25 °C
[2] = tested on: CN(C)CCCN1c2ccccc2Sc2ccccc21; assay: purified protein; conditions: 50 mM sodium acetate pH 5.5, 25 °C
[3] = tested on: COc1cc(/C=C/C(=O)O)cc(OC)c1O; assay: purified protein; conditions: 50 mM sodium acetate pH 5.5, 25 °C
[4] = tested on: OCCN1c2ccccc2Oc2ccccc21; assay: purified protein; conditions: 50 mM sodium acetate pH 5.5, 25 °C
[5] = tested on: COc1cc(C=NN=Cc2cc(OC)c(O)c(OC)c2)cc(OC)c1O; assay: purified protein; conditions: 50 mM sodium acetate pH 5.5, 25 °C
[6] = tested on: O=C(O)/C=C/c1ccc(O)c(O)c1; assay: purified protein; conditions: 50 mM sodium acetate pH 5.5, 25 °C
[7] = tested on: O=c1c(O)c(-c2ccc(O)cc2)oc2cc(O)cc(O)c12; assay: purified protein; conditions: 50 mM sodium acetate pH 5.5, 25 °C
[8] = tested on: O=c1c(O)c(-c2ccc(O)c(O)c2)oc2cc(O)ccc12; assay: purified protein; conditions: 50 mM sodium acetate pH 5.5, 25 °C
[9] = tested on: Oc1ccccc1O; assay: purified protein; conditions: 50 mM sodium acetate pH 5.5, 25 °C
[10] = tested on: CCn1c(=NN=c2sc3cc(S(=O)(=O)O)ccc3n2CC)sc2cc(S(=O)(=O)O)ccc21; assay: purified protein; conditions: 50 mM sodium acetate pH 5.5, 25 °C
[11] = tested on: O=C(O)CCN1c2ccccc2Oc2ccccc21; assay: purified protein; conditions: 50 mM sodium acetate pH 5.5, 25 °C
[12] = tested on: Oc1ccc(O)cc1; assay: purified protein; conditions: 50 mM sodium acetate pH 5.5, 25 °C
[13] = tested on: COc1cc(C(=O)O)cc(OC)c1O; assay: purified protein; conditions: 50 mM sodium acetate pH 5.5, 25 °C
[14] = tested on: O=C(O)c1cc(O)c(O)c(O)c1; assay: purified protein; conditions: 50 mM sodium acetate pH 5.5, 25 °C
[15] = tested on: Nc1ccc(N)cc1; assay: purified protein; conditions: 50 mM sodium acetate pH 5.5, 25 °C
[16] = target: yellow laccase Bcl1 from Botrytis cinerea strain 241 (Botrytis cinerea strain 241); assay: SEC; Superdex 200 5/150 GL analytical column, 50 mM Tris-HCl, 150 mM NaCl, pH 8; mass read against standards (apoferritin, beta-amylase, alcohol dehydrogenase, albumin) and compared with the mass by SDS-PAGE

Substance: Bcl1 laccase (Botrytis cinerea)
- Km [1]: 3.7 ± 0.8 µM
- kcat [1]: 6.7 ± 0.4 s⁻¹
- kcat/Km [1]: 1.8e+06 ± 300000 M⁻¹ s⁻¹
- Km [2]: 60.0 ± 10 µM
- kcat [2]: 7.1 ± 0.3 s⁻¹
- Km [3]: 60.0 ± 10 µM
- kcat [3]: 100 ± 10 s⁻¹
- Km [4]: 40.0 ± 7 µM
- kcat [4]: 25 ± 2 s⁻¹
- kcat/Km [4]: 630000 ± 30000 M⁻¹ s⁻¹
- Km [5]: 0.7 ± 0.1 µM
- kcat [5]: 30 ± 2 s⁻¹
- kcat/Km [5]: 4.3e+07 ± 7e+06 M⁻¹ s⁻¹
- Km [6]: 15.0 ± 1 µM
- kcat [6]: 13 ± 1 s⁻¹
- kcat/Km [6]: 870000 ± 200000 M⁻¹ s⁻¹
- Km [7]: 8.6 ± 0.1 µM
- kcat/Km [7]: 2e+06 ± 400000 M⁻¹ s⁻¹
- Km [8]: 1.5 ± 0.1 µM
- kcat [8]: 7.8 ± 0.3 s⁻¹
- kcat/Km [8]: 5.2e+06 ± 900000 M⁻¹ s⁻¹
- Km [9]: 70.0 ± 4 µM
- kcat [9]: 28 ± 1 s⁻¹
- kcat/Km [9]: 400000 ± 20000 M⁻¹ s⁻¹
- Km [10]: 13.8 ± 0.2 µM
- kcat [10]: 29 ± 1 s⁻¹
- kcat/Km [10]: 2.1e+06 ± 100000 M⁻¹ s⁻¹
- Km [11]: 6.0 ± 0.8 µM
- kcat [11]: 33 ± 1 s⁻¹
- kcat/Km [11]: 5.5e+06 ± 800000 M⁻¹ s⁻¹
- kcat [12]: 21.4 ± 0.3 s⁻¹
- kcat/Km [12]: 97000 ± 2000 M⁻¹ s⁻¹
- Km [13]: 74.0 ± 12 µM
- kcat [13]: 3.4 ± 0.5 s⁻¹
- kcat/Km [13]: 46000 ± 5000 M⁻¹ s⁻¹
- Km [14]: 27.0 ± 8 µM
- kcat [14]: 20 ± 3 s⁻¹
- kcat/Km [14]: 740000 ± 200000 M⁻¹ s⁻¹
- Km [15]: 150.0 ± 20 µM
- kcat [15]: 15 ± 1 s⁻¹
- kcat/Km [15]: 100000 ± 2000 M⁻¹ s⁻¹

Substance: yellow laccase Bcl1 from Botrytis cinerea strain 241 (enzyme)
- stoichiometry N [16]: 2
